Measurements from patent US7022818 (Janssen / Centocor, dated 2006).
Each block holds one binder with its values, some of them ahead of it.

B2: NH2-terminally 6His-tagged recombinant rat persephin (ligand)
chain: HHHHHHALPGLCRLWSLTLPVAELGLGYASEEKIIFRYCAGSCPQEVRTQHSLVLARLRGQGRAHGRPCCQPTSYADVTFLDDHHHWQQLPQLSAAACGCGG
notes: Immobilised on a CM5 chip by amine coupling; Produced as described in Creedon et al., 1997; also called PSP; rat PSP
B3: rat GFRα-4 variant A-IgGFc fusion protein (Fc fusion)
chain: ASSTEGNRCVEAAEACTADEQCQQLRSEYVAQCLGRAGWRGPGSCVRSRCRRALRRFFARGPPALTHALLFCGCEGPACAERRRQTFAPACAFSGPQLAPPSCLKPLDRCERSRRCRPRLFAFQASCAPAPGSRDGCPEEGGPRCLRAYAGLVGTVVTPNYLDNVSARVAPWCGCEASGNRREECEAFRKLFTRNPCLDGAIQAFDSSQPSVLQDQWNPYQNAG
notes: also called rat GFRα-4-IgGFc; rat GFRα4-IgGFc; not shown: The 243-residue COOH-terminal human IgG1-Fc fusion domain from the vector Signal pIg plus (R&D Systems)

Key:
[1] = target: T1, chicken GFRα-4-IgGFc fusion protein (chicken; human, UniProt P01857-1 99-330 = IgG part, limits assumed); assay: SPR (BIACORE 3000), ligand immobilised, GFRα-IgGFc in solution
T1 construct: domain: human IgG1-Fc fusion domain; also called chicken GFR-4-IgGFc
Description: (§1) Bound protein was eluted with 0.1 M Na-citrate, pH 3.0 and collected into 1 M Tris buffer, pH 8.4 (dilution ratio 1:6). Protein concentration was estimated by absorbance at 280 nm using an extinction coefficient of 1.5. Surface plasmon resonance (SPR) U.S. Ser. No. 10/019,337, filed Dec. 19, 2001 experiments were performed at 25° C. using a BIACORE 3000 instrument (Biacore AB, Uppsala, Sweden). Sensor chip CM5, the amine coupling kit and buffers used were also obtained from Biacore AB. Recombinant PSP, NTN, EVN/ART and GDNF were used as immobilised ligands. Recombinant human GDNF was obtained from R&D Systems Europe Ltd. (Abingdon, UK). NH2-terminally 6His-tagged (SEQ ID NO: 48) recombinant human NTN, rat PSP and human EVN/ART were produced in *E. coli* as described previously (Creedon et al., 1997). The carboxylated matrix of a CM5 sensor chip was first activated with a 1:1 mixture of 400 mM N-ethyl-N'-(3-dimethylaminopropyl)-carbodiimide and 100 mM N-hydroxy-succinimide for 10 min. Recombinant neurotrophic factors were applied onto the activated surface in 10 mM sodium acetate buffer, pH 4.5 at a flow rate of 5 μl/min. Unreacted carboxyl groups were blocked with 1 M ethanolamine-HCl. For binding experiments, soluble GFRα-IgGFc fusion proteins were superfused using the kinject program at 30 μl/min. Concentrations of GFRα-IgGFc used in kinetic experiments were between 1 and 100 nM in Hepes buffered saline (150 mM NaCl, 3.5 mM EDTA sodium salt, 0.005% polysorbate 20, 10 mM Hepes, pH 7.4). The association of the GFRα receptors to the immobilised ligands was monitored for 3 min and the dissociation for 1 min, followed by regeneration with 10 mM glycine buffer. Dissociation was initiated by superfusion with Hepes buffered saline. To improve the quality of sensor data, double referencing was used (Myszka, 1999). Data were analyzed using a global analysis with the BIACORE evaluation software (version 3.0.1). Global analysis calculates the association rate (k_a) and dissociation rate (k_d) simultaneously and the apparent equilibrium dissociation constant (K_D) is then calculated as k_d/k_a. A simple 1:1 Langmuir model was used to fit the data. Specific binding to PSP could be detected with both rat and chicken GFRα-4-IgGFc fusion proteins.

[2] = target: B3; assay: as above
Description: as §1

[3] = target: T1, chicken GFRα-4-IgGFc fusion protein; assay: SPR (BIACORE 3000), persephin immobilised, GFRα-4-IgGFc in solution, 1:1 Langmuir global fit, n=3
Description: as §1

[4] = target: B3; assay: as above
Description: as §1

[5] = target: B2; assay: SPR (BIACORE 3000), persephin immobilised
Description: Bound protein was eluted with 0.1 M Na-citrate, pH 3.0 and collected into 1 M Tris buffer, pH 8.4 (dilution ratio 1:6). Protein concentration was estimated by absorbance at 280 nm using an extinction coefficient of 1.5. Surface plasmon resonance (SPR) U.S. Ser. No. 10/019,337, filed Dec. 19, 2001 experiments were performed at 25° C. using a BIACORE 3000 instrument (Biacore AB, Uppsala, Sweden). Sensor chip CM5, the amine coupling kit and buffers used were also obtained from Biacore AB. Recombinant PSP, NTN, EVN/ART and GDNF were used as immobilised ligands. Recombinant human GDNF was obtained from R&D Systems Europe Ltd. (Abingdon, UK). NH2-terminally 6His-tagged (SEQ ID NO: 48) recombinant human NTN, rat PSP and human EVN/ART were produced in *E. coli* as described previously (Creedon et al., 1997). […] The association of the GFRα receptors to the immobilised ligands was monitored for 3 min and the dissociation for 1 min, followed by regeneration with 10 mM glycine buffer. […] Data were analyzed using a global analysis with the BIACORE evaluation software (version 3.0.1). Global analysis calculates the association rate (k_a) and dissociation rate (k_d) simultaneously and the apparent equilibrium dissociation constant (K_D) is then calculated as k_d/k_a. […] Specific binding to PSP could be detected with both rat and chicken GFRα-4-IgGFc fusion proteins.

[6] = target: T2, human GFRα-2-IgGFc fusion protein (human, UniProt O00451 20-431); assay: SPR (BIACORE 3000), NTN immobilised
T2 construct: range 20-431; not shown: 243 amino acid residue COOH-terminal human IgG1-Fc fusion domain from vector Signal pIg plus (R&D Systems); exact limits
T2 sequence (looked up): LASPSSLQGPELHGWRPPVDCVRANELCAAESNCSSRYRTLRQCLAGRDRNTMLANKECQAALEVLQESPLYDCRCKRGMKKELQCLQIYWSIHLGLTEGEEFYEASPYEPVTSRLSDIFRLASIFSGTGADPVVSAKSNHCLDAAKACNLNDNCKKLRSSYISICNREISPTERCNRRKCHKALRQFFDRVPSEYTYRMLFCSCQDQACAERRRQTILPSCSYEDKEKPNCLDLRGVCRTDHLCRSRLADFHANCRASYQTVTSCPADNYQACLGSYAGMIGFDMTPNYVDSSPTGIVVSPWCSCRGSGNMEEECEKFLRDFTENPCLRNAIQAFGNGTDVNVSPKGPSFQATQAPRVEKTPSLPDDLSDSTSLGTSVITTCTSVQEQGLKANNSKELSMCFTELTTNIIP
Description: GFRα-IgGFc fusion proteins were purified from the medium of permanently or transiently transfected CHO cells by protein A chromatography. Bound protein was eluted with 0.1 M Na-citrate, pH 3.0 and collected into 1 M Tris buffer, pH 8.4 (dilution ratio 1:6). Protein concentration was estimated by absorbance at 280 nm using an extinction coefficient of 1.5. Surface plasmon resonance (SPR) U.S. Ser. No. 10/019,337, filed Dec. 19, 2001 experiments were performed at 25° C. using a BIACORE 3000 instrument (Biacore AB, Uppsala, Sweden). Sensor chip CM5, the amine coupling kit and buffers used were also obtained from Biacore AB. Recombinant PSP, NTN, EVN/ART and GDNF were used as immobilised ligands. Recombinant human GDNF was obtained from R&D Systems Europe Ltd. (Abingdon, UK). NH2-terminally 6His-tagged (SEQ ID NO: 48) recombinant human NTN, rat PSP and human EVN/ART were produced in *E. coli* as described previously (Creedon et al., 1997). […] The association of the GFRα receptors to the immobilised ligands was monitored for 3 min and the dissociation for 1 min, followed by regeneration with 10 mM glycine buffer. […] Data were analyzed using a global analysis with the BIACORE evaluation software (version 3.0.1). Global analysis calculates the association rate (k_a) and dissociation rate (k_d) simultaneously and the apparent equilibrium dissociation constant (K_D) is then calculated as k_d/k_a. […]

T1 sequence (P01857 other isoform, or with tags, fused parts or gaps limits assumed): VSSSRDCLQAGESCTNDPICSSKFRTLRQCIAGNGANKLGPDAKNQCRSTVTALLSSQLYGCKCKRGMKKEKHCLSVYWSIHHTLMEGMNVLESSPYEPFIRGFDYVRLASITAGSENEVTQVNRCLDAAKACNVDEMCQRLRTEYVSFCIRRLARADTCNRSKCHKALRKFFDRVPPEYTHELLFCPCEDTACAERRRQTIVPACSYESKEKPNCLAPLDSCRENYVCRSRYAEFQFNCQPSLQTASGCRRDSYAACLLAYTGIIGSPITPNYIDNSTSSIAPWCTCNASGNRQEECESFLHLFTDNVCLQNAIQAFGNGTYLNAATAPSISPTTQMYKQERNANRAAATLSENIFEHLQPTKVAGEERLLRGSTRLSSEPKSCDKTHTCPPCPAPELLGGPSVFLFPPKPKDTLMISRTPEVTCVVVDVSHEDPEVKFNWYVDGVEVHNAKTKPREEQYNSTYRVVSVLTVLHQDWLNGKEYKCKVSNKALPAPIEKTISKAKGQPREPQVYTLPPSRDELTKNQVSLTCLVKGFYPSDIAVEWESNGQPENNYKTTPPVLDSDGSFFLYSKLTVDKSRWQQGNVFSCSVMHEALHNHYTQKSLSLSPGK

- binding result [1]: no binding
- binding result [2]: no binding
B1: recombinant human GDNF (ligand, UniProt P39905 78-211, looked up)
chain: SPDKQMAVLPRRERNRQAAAANPENSRGKGRRGQRGKNRGCVLTAIHLNVTDLGLGYETKEELIFRYCSGSCDAAETTYDKILKNLSRNRRLVSDKVGQACCRPIAFDDDLSFLDDNLVYHILRKHSAKRCGCI
notes: Immobilised on a CM5 chip by amine coupling; also called glial cell-line derived neurotrophic factor

- binding result [1]: no binding
- binding result [2]: no binding
B4: NH2-terminally 6His-tagged recombinant human enovin/artemin (ligand)
chain: HHHHHHAGGPGSRARAAGARGCRLRSQLVPVRALGLGHRSDELVRFRFCSGSCRRARSPHDLSLASLLGAGALRPPPGSRPVSQPCCRPTRYEAVSFMDVNSTWRTVDRLSATACGCLG
notes: Immobilised on a CM5 chip by amine coupling; also called EVN/ART; EVN/ARTN

- binding result [6]: binds
- binding result [1]: no binding
- binding result [2]: no binding
B5: NH2-terminally 6His-tagged recombinant human neurturin (ligand)
chain: HHHHHHARLGARPCGLRELEVRVSELGLGYASDETVLFRYCAGACEAAARVYDLGLRRLRQRRRLRRERVRAQPCCRPTAYEDEVSFLDAHSRYHTVHELSARECACV
notes: Immobilised on a CM5 chip by amine coupling; also called NTN

More lines, now with the values behind:

Binder: B2
- Kd [3]: 5.4 nM
- koff [3]: 0.00088 s⁻¹
- kon [3]: ~230000 M⁻¹ s⁻¹
- Kd [4]: 5.9 nM
- koff [4]: 0.0012 s⁻¹
- kon [4]: ~270000 M⁻¹ s⁻¹

Binder: B3
- fold lower binding level than chicken GFRα-4-IgGFc [5]: ~20 fold
